Changes are numbered by the printed parent chain. Names and notes keep the numbering of the source. Each block holds one molecule with its values, some of them ahead of it.
What was measured:
[1] = target: Tsa1^WT (typical 2-Cys peroxiredoxin Tsa1 from S. cerevisiae) (S. cerevisiae) (UniProt P34760); assay: SEC; analytical HPLC, Phenomenex BioSep-SEC-S3000, 50 uM enzyme, 100 mM Tris-HCl pH 7.4, 50 mM NaCl, 1 mL/min; samples reduced with 5 mM TCEP for 30 min at 25 C; dimers to decamer
[2] = target: Tsa1^T44A (S. cerevisiae) (UniProt P34760); assay: as above
[3] = target: Tsa1^T44S (S. cerevisiae) (UniProt P34760); assay: as above
[4] = target: Tsa1^T44S (S. cerevisiae) (UniProt P34760); assay: SEC; analytical HPLC, Phenomenex BioSep-SEC-S3000, 50 uM enzyme, 100 mM Tris-HCl pH 7.4, 50 mM NaCl, 1 mL/min; samples reduced with TCEP and then oxidised (disulfide) with 1.2 molar equivalents of H2O2 for 30 min at 25 C; dimers to decamer
[5] = substrate: CC(C)(OO)c1ccccc1; assay: Trx system coupled assay, NADPH oxidation; format: biochemical, Saccharomyces cerevisiae; details: Trx1 2 μM, TrxR1 0.3 μM, NADPH 150 μM, HEPES pH 7.4, 30 °C
Text: Trx system coupled assay, NADPH oxidation on Tsa1 (Tsa1^WT) | In the case of cumene hydroperoxide (CHP) reduction, Tsa1^WT and Tsa1^T44S also presented similar enzymatic parameters

[6] = target: the molecule itself; assay: SEC; analytical HPLC, Phenomenex BioSep-SEC-S3000, 50 uM enzyme, 100 mM Tris-HCl pH 7.4, 50 mM NaCl, 1 mL/min; samples reduced with TCEP and then oxidised (disulfide) with 1.2 molar equivalents of H2O2 for 30 min at 25 C; dimers to decamer
[7] = target: the molecule itself; assay: SEC; analytical HPLC, Phenomenex BioSep-SEC-S3000, 50 uM enzyme, 100 mM Tris-HCl pH 7.4, 50 mM NaCl, 1 mL/min; samples reduced with 5 mM TCEP for 30 min at 25 C; dimers to decamer
[8] = substrate: CC(C)(OO)c1ccccc1; assay: Trx system coupled assay, NADPH oxidation; format: biochemical, Saccharomyces cerevisiae; details: Trx1 2 μM, TrxR1 0.3 μM, NADPH 150 μM, HEPES pH 7.4, 30 °C; remark: listed apart in the source

stoichiometry N [1]: 10
Molecule: Tsa1^WT (typical 2-Cys peroxiredoxin Tsa1 from S. cerevisiae) (from UniProt P34760 1-196) (enzyme)

stoichiometry N [2]: 10
Molecule: Tsa1^T44A (from UniProt P34760 1-196) (enzyme)

stoichiometry N [3]: 10
stoichiometry N [4]: 10
Molecule: Tsa1^T44S (from UniProt P34760 1-196) (enzyme)

B1: Tsa1 (Tsa1^WT) (Saccharomyces cerevisiae S288C) (protein)
chain: MVAQVQKQAPTFKKTAVVDGVFDEVSLDKYKGKYVVLAFIPLAFTFVCPTEIIAFSEAAKKFEEQGAQVLFASTDSEYSLLAWTNIPRKEGGLGPINIPLLADTNHSLSRDYGVLIEEEGVALRGLFIIDPKGVIRHITINDLPVGRNVDEALRLVEAFQWTDKNGTVLPCNWTPGAATIKPTVEDSKEYFEAANK
notes: pET15b/Tsa1, His-tagged (HisTrap IMAC); homodimer ~48 kDa, decamer ~240 kDa
Km [5]: 8.80 ± 0.05 µM
kcat [5]: 0.7 ± 0.1 s⁻¹
kcat/Km [5]: 82000 ± 11000 M⁻¹ s⁻¹

B2: Tsa1^T44V (enzyme)
chain: B1 chain with T45V
stoichiometry N [6]: 2

B3: Tsa1 (Tsa1^WT) (Saccharomyces cerevisiae S288C; T45S) (protein)
chain: B1 chain with T45S
notes: as for B1
Km [5]: 9.9 ± 1.2 µM
kcat [5]: 0.7 ± 0.1 s⁻¹
kcat/Km [5]: 75000 ± 9000 M⁻¹ s⁻¹

B4: Tsa1^Y77A (enzyme)
chain: B1 chain with Y78A
stoichiometry N [6]: 2
stoichiometry N [7]: 2

B5: Tsa1^S78D (enzyme)
chain: B1 chain with S79D
stoichiometry N [6]: 2
stoichiometry N [7]: 2

B6: Tsa1 (Tsa1^WT) (Saccharomyces cerevisiae S288C; T45A) (protein)
chain: B1 chain with T45A
notes: as for B1
Km [8]: 300 µM

B7: Tsa2^WT (typical 2-Cys peroxiredoxin Tsa2 from S. cerevisiae) (enzyme)
chain: MVAEVQKQAPPFKKTAVVDGIFEEISLEKYKGKYVVLAFVPLAFSFVCPTEIVAFSDAAKKFEDQGAQVLFASTDSEYSLLAWTNLPRKDGGLGPVKVPLLADKNHSLSRDYGVLIEKEGIALRGLFIIDPKGIIRHITINDLSVGRNVNEALRLVEGFQWTDKNGTVLPCNWTPGAATIKPDVKDSKEYFKNANN
notes: Tsa2, typical 2-Cys peroxiredoxin of Saccharomyces cerevisiae (86% identity with Tsa1; Ser45 in place of Thr44 of Tsa1); Decamer in both redox states by SEC; source: E. coli BL21 (DE3), pPROEx/tsa2, purified (IMAC on HisTrap, PD10 desalting); not shown: His tag (from the vector pPROEx); copies: 10
stoichiometry N [6]: 10
stoichiometry N [7]: 10
